Assay results taken from patent US20170029530A1 (AbbVie / Abbott, published 2017).
Changes are numbered by the printed parent chain. “And” between values parts separate entries of the source, which are not always exact repeats. Identical values can stand only once.

B1: SC34.5 (antibody, mouse IgG1, V domains shown)
VH: EVQLQQSGPELVKPGASMKISCKASGYSFTGYTMNWVKQSHGKNLEWIGLIYPYNDDTRYKQKFKGKATLTVDKSSSTAYMELLSLTSEDSAVYYCTRGYYGSPYFDVWGAGTTVTVSS
VL: DIVMTQFPSSLAMSVGQKVTMNCKSSQSLLNSSNQKNYLAWFQQKPGQSPKLLVYFASTRESGVPDRFLGSGSGTDFTLTISSVQAEDLADYFCQQHYSTPFTFGSGTKLEIK
notes: also called SC34.05
B2: SC34.14 (antibody, mouse IgG1, V domains shown)
VH: EVQLQQSGPEMVKPGASVKISCKASGYIFTDYYMHWVKQSHGESLDWIGRVNPKKGGTTYNQKFEGKAILTVDKSSSTAYMDLNSLTSEDSAVYYCAMGIYYSYDASFDYWGQGTTLTVSS
VL: DIQMTQAPASLSPSVGATVTITCRTSEHIYSYLAWYQQKQGKSPRLLVYNAKTLAEGVSSRFSGSGSGTQFSLQINSLQPEDFGNYYCQHHYDTPYTFGGGTKLEIK
B3: SC34.48 (antibody, mouse IgG1, V domains shown)
VH: B2 VH with P9L, E43K, I69T, Y102F
VL: B2 VL with P13A, A17E, E27G, R45Q, Q74K, N76T, N85D
B4: SC34.87 (antibody, mouse IgG2a, V domains shown)
VH: QVQLQQSGAELAKPGASVKMSCKASGYTFTSYWMLWVKQRPGQGLEWIGYIDPRNGYTEYNQKFKDKATLTADKSSSTAYMQLSSLTSEDSAVYYCTRGGNVAMDYWGQGTSVTVSS
VL: DIVMSQSPSSLAVSAGEKVTMSCKSSQSLLNSRTRKNYLAWYQQKPGQSPKLLIYWASTRESGVPGRFTGSGSGTDFTLTISSVQAEDLAVYYCKQSYNLWTFGGGTKLEIK
B5: SC34.89 (antibody, mouse IgG1, V domains shown)
VH: QVQLQQSGAELARPGASVKLSCKASGYTFTSYAISWVKQRTRQGLEWIGEIYPGSGDIHYSGKFKGKASLTTDKSSSTAYMQLSSLTSEDSAVYFCARVHDYGSWFPYWGQGTLVTVSA
VL: DIVMSQSPSSLGVSVGEKVTLSCKSSQSLFNKRDQKNYLAWYQQKPGQSPKLLIYWASTRESGVPDRFTGSGSGTDFILTIRSVKAEDLAVYYCHQSYRYPLTFGAGTKLELK
B6: SC34.19 (antibody, mouse IgG1, V domains shown)
VH: B5 VH with S35T, R42G, D57N, I58T, H59F, Y60F, S61N, G62E, K67R, S69T
VL: DIVMSQSPSALAVSVGEKITMSCKCSQSLLHSRDQKNYLAWYQQKPGQSPKLLIYWASTRESGVPDRFTGSGSGTDFTLTINTVKAEDLAVYYCQQHYRYPLTFGAGTKLELK
B7: SC34.58 mouse anti-DPEP3 antibody (antibody, V domains shown)
VH: QVQLQQSGAELARPGASVKLSCKASGYTFTSYGVNWVKQRTGQGLEWIGEIYPGRGDVYYNDNFKGKATLTTDKSSSTAYMQLSSLTSEDSAVYFCARVHDYGSWFPYWGQGTLVTVSA
VL: B6 VL with A10S, I19V, C25S, H31Y, D34N, N82S, T83S, Q95H, K113R
notes: Mouse hybridoma antibody
B8: SC34.13 (antibody, mouse IgG2a, V domains shown)
VH: B5 VH with L4V, R42G, D57N, I58T, H59Y, S61N, S69T, H100D
VL: DIVMSQSPSSLAVSVGEKVTLSCKSSQSLLYSRYQKNYLAWYQQKPGQSPRLVIYWASTRESGVPDRFTGSGSGTDFTLTISSVKAEDLVVYYCQQYYRYPLTFGSGTKLELK
B9: SC34.16 (antibody, mouse IgG1, V domains shown)
VH: QVQLQQSGTELARPGASVKLSCKASEYTFTSYAITWVRQRTGQGLEWIGEIYPGSGNTYYNETFKGKATLTSDKSSSTASMQLSSLTSEDSAVYFCARVHDYGSWFPYWGQGTLVTVSA
VL: B8 VL with L21M, R51K, V53L, A57S, V90A, V91D, S106A
B10: SC34.25 (antibody, mouse IgG1, V domains shown)
VH: QVQLQQSGVELARPGASVKVSCKASGYTFTSYAISWVKQRTGQGLEWIGEIYPGSGETYYNEKFKGKATLTTDKSSSTAYMHLSSLTSEDSAVYLCGRVNDYGSWFPYWGQGTLVTVSA
VL: B8 VL with V15G, L21M, L39V, R51K, V53L, V90A, S106A

The binders below were run against T1, cDPEP3 (Macaca fascicularis, UniProt Q4R7M2) (assay: ELISA, coated antigen).
T1 construct: extracellular domain; also called cynomolgus DPEP3-His; cynomolgus DPEP3 ECD with histidine tag
T1 sequence (single chain, looked up): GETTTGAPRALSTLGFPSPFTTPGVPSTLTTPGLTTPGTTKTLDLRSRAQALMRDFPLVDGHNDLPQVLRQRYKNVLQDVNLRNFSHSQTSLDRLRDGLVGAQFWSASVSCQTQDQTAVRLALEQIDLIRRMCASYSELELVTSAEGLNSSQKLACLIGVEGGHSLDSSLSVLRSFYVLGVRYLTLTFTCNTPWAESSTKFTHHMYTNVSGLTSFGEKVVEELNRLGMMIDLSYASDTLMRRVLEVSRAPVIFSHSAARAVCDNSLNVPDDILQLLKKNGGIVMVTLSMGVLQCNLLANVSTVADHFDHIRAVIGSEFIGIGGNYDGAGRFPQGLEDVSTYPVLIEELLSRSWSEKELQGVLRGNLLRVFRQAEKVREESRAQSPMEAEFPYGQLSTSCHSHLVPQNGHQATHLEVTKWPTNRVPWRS
Protocol: (§1) The anti-DPEP3 antibodies were screened by ELISA for cross-reactivity with mouse, rat and cynomolgus DPEP3 and for cross reactivity to hDPEP2, the closest DPEP3 family member. ELISA was conducted as follows. Plates were coated with purified mouse, rat or cynomolgus DPEP3-His or hDPEP2-His at 0.3 μg/mL in 0.2 M carbonate-bicarbonate buffer, pH 9.4 overnight at 4° C. The protein solution was removed and the wells were blocked with 1% (w/v) BSA in PBS (PBSA), 100 μL/well for 1 hour at 37° C. Anti-DPEP3 antibody or a mouse isotype control antibody was then added at 1 μg/mL in 50 μL PBSA for 1 hour at room temperature. After washing with water, 50 μL/well HRP-labeled goat anti-mouse IgG antibody diluted 1:10,000 in PBSA was added for 30 min at room temperature. The plates were washed and developed by the addition of 40 μL/well of the TMB substrate solution (Thermo Scientific) at room temperature. An equal volume of 0.2 M H₂SO₄ was added to stop substrate development. The samples were then analyzed by spectrophotometer at OD 450. […] The cross reactivity results for exemplary DPEP3-specific antibodies can be seen in FIG. 4.

| Binder | binding result |
| --- | --- |
| B1 | no binding (tested: 1 ug/mL) |
| B2 | no binding (tested: 1 ug/mL) |
| B3 | no binding (tested: 1 ug/mL) |
| B4 | no binding (tested: 1 ug/mL) |

Target: T2, mDPEP3 (limits assumed)
T2 construct: also called mouse DPEP3-His; mouse DPEP3 ECD with histidine tag
T2 single chain: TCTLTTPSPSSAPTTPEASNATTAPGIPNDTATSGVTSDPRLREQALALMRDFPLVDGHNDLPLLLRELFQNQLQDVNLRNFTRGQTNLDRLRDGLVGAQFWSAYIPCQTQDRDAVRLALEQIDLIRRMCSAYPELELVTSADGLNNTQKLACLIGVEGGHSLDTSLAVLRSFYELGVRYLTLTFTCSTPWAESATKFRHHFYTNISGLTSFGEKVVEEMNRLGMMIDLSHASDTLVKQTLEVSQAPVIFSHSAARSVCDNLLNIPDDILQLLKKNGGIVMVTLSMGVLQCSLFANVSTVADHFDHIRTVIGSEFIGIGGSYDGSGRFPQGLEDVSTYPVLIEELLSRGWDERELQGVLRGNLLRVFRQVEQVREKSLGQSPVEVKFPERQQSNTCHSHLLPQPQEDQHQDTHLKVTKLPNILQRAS
Experiment: ELISA, coated antigen
Protocol: as §1

| Binder | binding result |
| --- | --- |
| B5 | no binding (tested: 1 ug/mL) |
| B6 | no binding (tested: 1 ug/mL) |
| B7 | no binding (tested: 1 ug/mL) |
| B8 | no binding (tested: 1 ug/mL) |
| B1 | no binding (tested: 1 ug/mL) |
| B2 | no binding (tested: 1 ug/mL) |
| B3 | no binding (tested: 1 ug/mL) |
| B9 | no binding (tested: 1 ug/mL) |
| B10 | no binding (tested: 1 ug/mL) |
| B4 | no binding (tested: 1 ug/mL) |

What follows are binders tested against T3, rat DPEP3 ECD with histidine tag (rat, UniProt Q5U2X4 36-459, limits assumed) (assay: ELISA, coated antigen).
T3 construct: also called rDPEP3-His; ratDPEP3-His; not shown: histidine tag
T3 sequence: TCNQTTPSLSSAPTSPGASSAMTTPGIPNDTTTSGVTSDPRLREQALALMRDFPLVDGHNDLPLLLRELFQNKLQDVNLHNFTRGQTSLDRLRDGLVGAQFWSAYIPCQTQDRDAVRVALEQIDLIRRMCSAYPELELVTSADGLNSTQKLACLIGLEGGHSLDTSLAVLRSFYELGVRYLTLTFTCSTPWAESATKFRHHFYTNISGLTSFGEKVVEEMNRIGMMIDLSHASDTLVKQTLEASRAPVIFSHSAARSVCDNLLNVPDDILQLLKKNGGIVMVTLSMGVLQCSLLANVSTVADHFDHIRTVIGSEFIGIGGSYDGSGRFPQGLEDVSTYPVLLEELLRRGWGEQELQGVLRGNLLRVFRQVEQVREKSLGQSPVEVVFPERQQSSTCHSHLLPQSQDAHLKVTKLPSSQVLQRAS
Protocol: as §1

| Binder | binding result |
| --- | --- |
| B5 | no binding (tested: 1 ug/mL) |
| B6 | no binding (tested: 1 ug/mL) |
| B7 | no binding (tested: 1 ug/mL) |
| B8 | no binding (tested: 1 ug/mL) |
| B1 | no binding (tested: 1 ug/mL) |
| B2 | no binding (tested: 1 ug/mL) |
| B3 | no binding (tested: 1 ug/mL) |
| B9 | no binding (tested: 1 ug/mL) |
| B10 | no binding (tested: 1 ug/mL) |

These binders were tested against T4, hDPEP2 ECD with histidine tag (human, UniProt Q9H4A9 33-463) (assay: ELISA, coated antigen).
T4 construct: also called hDPEP2-His; not shown: histidine tag
Protocol: as §1

T4 sequence (Q9H4A9 33-463): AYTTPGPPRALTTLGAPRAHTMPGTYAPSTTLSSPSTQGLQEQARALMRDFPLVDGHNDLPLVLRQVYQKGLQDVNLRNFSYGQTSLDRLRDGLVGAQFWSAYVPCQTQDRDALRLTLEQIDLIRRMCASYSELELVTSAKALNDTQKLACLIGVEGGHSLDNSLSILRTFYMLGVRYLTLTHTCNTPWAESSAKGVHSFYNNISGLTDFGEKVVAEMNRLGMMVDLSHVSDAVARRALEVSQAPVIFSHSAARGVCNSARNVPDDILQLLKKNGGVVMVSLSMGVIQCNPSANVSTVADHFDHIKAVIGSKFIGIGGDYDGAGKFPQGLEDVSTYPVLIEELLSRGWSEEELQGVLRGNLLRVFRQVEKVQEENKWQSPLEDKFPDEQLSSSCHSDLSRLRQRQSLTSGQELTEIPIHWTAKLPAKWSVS

| Binder | binding result |
| --- | --- |
| B5 | no binding (tested: 1 ug/mL) |
| B6 | no binding (tested: 1 ug/mL) |
| B7 | no binding (tested: 1 ug/mL) |
| B8 | no binding (tested: 1 ug/mL) |
| B1 | no binding (tested: 1 ug/mL) |
| B9 | no binding (tested: 1 ug/mL) |
| B10 | no binding (tested: 1 ug/mL) |
| B4 | no binding (tested: 1 ug/mL) |

These binders were tested against T5, hDPEP3-ECD-His (human, UniProt Q9H4B8 36-463) (assay: BLI ForteBio RED, 200 nM hDPEP3-His, estimated grade).
T5 construct: also called hDPEP3-His; monomeric hDPEP3-His antigen; not shown: histidine tag
T5 sequence: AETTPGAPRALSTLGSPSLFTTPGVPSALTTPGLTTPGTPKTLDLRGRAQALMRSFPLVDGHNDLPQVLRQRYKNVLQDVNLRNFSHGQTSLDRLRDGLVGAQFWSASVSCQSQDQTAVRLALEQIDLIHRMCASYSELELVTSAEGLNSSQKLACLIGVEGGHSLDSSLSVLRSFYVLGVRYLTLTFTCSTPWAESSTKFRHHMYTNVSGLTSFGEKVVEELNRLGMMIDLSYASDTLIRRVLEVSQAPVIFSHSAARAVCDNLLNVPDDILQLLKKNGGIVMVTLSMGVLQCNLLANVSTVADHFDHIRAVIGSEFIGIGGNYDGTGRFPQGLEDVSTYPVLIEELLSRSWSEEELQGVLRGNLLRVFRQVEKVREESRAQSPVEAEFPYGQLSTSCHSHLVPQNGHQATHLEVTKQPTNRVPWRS
Protocol: The affinity of the antibodies for hDPEP3-His was qualitatively determined from kinetics curves generated with a ForteBio RED as follows. Anti-DPEP3 antibodies were immobilized onto anti-mouse Fc capture biosensors with a contact time of 3 mins. and a flow rate of 1000 rpm. The captured antibody loading from baseline was constant at 0.3-1 units. Following antibody capture and 30 second baseline, the biosensors were dipped into a 200 nM solution of hDPEP3-His for a 4 min. association phase followed by a 3 min. dissociation phase at a shaking rate of 1000 rpm. The biosensors were regenerated by dipping into 10 mM glycine, pH 1.7 following each cycle. The data was processed by subtracting a control mouse IgG surface response from the specific antibody response and data was truncated to the association and dissociation phase. The association and dissociation curves were used to qualitatively estimate the affinities of selected antibodies. […] A designation of “ND” means that the estimated KD was not determined.

| Binder | Kd |
| --- | --- |
| B5 | < 5 nM |
| B6 | ≥ 5 nM and ≤ 10 nM |
| B7 | < 5 nM |
| B8 | ≥ 5 nM and ≤ 10 nM |
| B1 | < 5 nM |
| B2 | < 5 nM |
| B3 | < 5 nM |
| B9 | < 5 nM |
| B10 | < 5 nM |
| B4 | ≥ 5 nM and ≤ 10 nM |
